The target in assay [1] is HLA-A*02:01. Description: IEDB peptide-MHC binding, purified MHC/direct/fluorescence; filed as Kd, often an IC50 or EC50 that approximates it; ≥ and ≤ were set here for values at or beyond the usual limits of such assays.
In another assay the target is HLA-A*69:01. The assay is described as above.
In another assay the target is HLA-C*12:03. The assay is described as above. The conditions noted are these: source organism: Coxiella burnetii RSA 331.
A further assay has as its target HLA-A*02:50. Description: IEDB peptide-MHC binding, purified MHC/competitive/fluorescence; filed as Kd, often an IC50 or EC50 that approximates it; ≥ and ≤ were set here for values at or beyond the usual limits of such assays.
Assay [2] deals with HLA-A*24:02. Described as above.
For the next assay, the target named is HLA-A*24:03. Description: IEDB peptide-MHC binding, purified MHC/direct/fluorescence; filed as Kd, often an IC50 or EC50 that approximates it; ≥ and ≤ were set here for values at or beyond the usual limits of such assays.
A further assay has as its target HLA-C*04:01. The assay is described as above.
The next assay concerns the target HLA-C*05:01. The description is as above. The note with it: source organism: Mycobacterium tuberculosis C.
Assay [3] concerns the target HLA-A*24:02. Description: IEDB peptide-MHC binding, purified MHC/competitive/fluorescence; ≥ and ≤ were set here for values at or beyond the usual limits of such assays. The conditions noted are these: source organism: Bos taurus.
For another assay, the target named is HLA-B*35:01. The description is as above. The note with it: source organism: Bos taurus.
The target of assay [4] is HLA-A*01:01. Description: IEDB peptide-MHC binding, purified MHC/direct/fluorescence; filed as Kd, often an IC50 or EC50 that approximates it; ≥ and ≤ were set here for values at or beyond the usual limits of such assays. The conditions noted are these: source organism: Camelpox virus M-96.
The target in the next assay is HLA-A*03:01. The description is as above.
In a further assay the target is HLA-A*11:01. Described as above.
Another assay deals with HLA-A*31:01. The assay is described as above.
Assay [5] deals with HLA-B*07:02. The assay is described as above.
A further assay concerns the target HLA-B*40:01. The description is as above.
The target of a further assay is HLA-B*46:01. The assay is described as above.
Assay [6] concerns the target HLA-B*48:01. Described as above. The note with it: source organism: Camelpox virus M-96.
In a further assay the target is HLA-B*57:01. Described as above.
The next assay has as its target HLA-B*58:01. The description is as above.
Assay [7] deals with HLA-A*02:01. Description: IEDB peptide-MHC binding, purified MHC/competitive/fluorescence; filed as Kd, often an IC50 or EC50 that approximates it; ≥ and ≤ were set here for values at or beyond the usual limits of such assays. The conditions noted are these: source organism: Vaccinia virus Copenhagen.
The target in another assay is HLA-A*02:06. Described as above.
A further assay has as its target HLA-A*26:02. Described as above.
A further assay concerns the target HLA-A*26:03. The assay is described as above. The conditions noted are these: source organism: Vaccinia virus Copenhagen.
The target of assay [8] is HLA-A*68:02. The description is as above. The conditions noted are these: source organism: Vaccinia virus Copenhagen.
Assay [9] deals with HLA-B*08:01. Described as above. The conditions noted are these: source organism: Vaccinia virus Copenhagen.
For assay [10], the target named is HLA-B*15:01. The assay is described as above.
For another assay, the target named is HLA-B*15:17. Described as above.
Assay [11] addresses HLA-B*18:01. Described as above. The note with it: source organism: Vaccinia virus Copenhagen.
In assay [12] the target is HLA-B*48:01. The assay is described as above. The conditions noted are these: source organism: Giardia lamblia ATCC 50803.
The target of assay [13] is HLA-B*07:02. Described as above.
Assay [14] concerns the target HLA-A*24:02. Description: IEDB peptide-MHC binding, purified MHC/direct/fluorescence; filed as Kd, often an IC50 or EC50 that approximates it; ≥ and ≤ were set here for values at or beyond the usual limits of such assays. The note with it: source organism: Escherichia coli O157:H7.
Assay [15] deals with HLA-B*15:01. The description is as above. The conditions noted are these: source organism: Escherichia coli O157:H7.
The next assay concerns the target HLA-B*27:05. Described as above. The conditions noted are these: source organism: Escherichia coli O157:H7.
The next assay concerns the target HLA-B*44:02. The assay is described as above. The note with it: source organism: Escherichia coli O157:H7.
The target in a further assay is HLA-C*07:02. The description is as above.
A further assay concerns the target HLA-A*26:01. The assay is described as above. The note with it: source organism: Variola virus.
Assay [16] concerns the target HLA-A*68:02. The description is as above. The conditions noted are these: source organism: Camelpox virus CMS.
For assay [17], the target named is HLA-B*08:01. Described as above. The conditions noted are these: source organism: Variola virus.
A further assay addresses HLA-B*08:02. The assay is described as above. The note with it: source organism: Variola virus.
The target in assay [18] is HLA-B*18:01. Described as above. The note with it: source organism: Camelpox virus CMS.
Assay [19] concerns the target HLA-A*01:01. Description: IEDB peptide-MHC binding, purified MHC/competitive/fluorescence; filed as Kd, often an IC50 or EC50 that approximates it; ≥ and ≤ were set here for values at or beyond the usual limits of such assays. The conditions noted are these: source organism: Vaccinia virus Tian Tan.
Setting [20] is: source organism: Coxiella burnetii.
Setting [21] is: source organism: Camelpox virus M-96.
Setting [22] is: source organism: Vaccinia virus Copenhagen.
Where [23] appears, read: source organism: Escherichia coli O157:H7.
[24] abbreviates: source organism: West Nile virus.
[25] abbreviates: source organism: Camelpox virus CMS.
[26] abbreviates: source organism: Vaccinia virus Tian Tan.
Where [27] appears, read: source organism: Tokudaia muenninki.

What is called Kd is a measure of binding affinity in units of concentration. The low end stands for a tighter complex, the high end for a looser complex. Broadly, the IC50 is the concentration that inhibits the measured activity by half. Read a low IC50 as higher potency.

A value given as a limit tells only on which side of the number the result lay.

With YTYPIAHTA, the Kd with HLA-A*02:01 [1] (setting [20]) amounted to 852 nM; in the assay with HLA-A*69:01 (setting [20]), 2.5 nM; with HLA-C*12:03, 4 nM; with HLA-A*02:50 (source organism: Coxiella burnetii RSA 331) it was 1.1 nM.
In the assay with HLA-A*24:02 [2] (source organism: Bacillus anthracis str. A0488), WYAPVALLF registered a Kd of at most 0.1 nM.
Regarding VYAPAGVEL, the results for the Kd in the assay with HLA-A*24:03 (source organism: Mycobacterium tuberculosis), in the assay with HLA-C*04:01 (source organism: Mycobacterium tuberculosis C) and with HLA-C*05:01 were 2.1 nM, at least 20000 nM and at least 20000 nM, respectively.
Consider YMMDDLEL, for which the IC50 is 1060 nM with HLA-A*24:02 [3] and at least 20000 nM with HLA-B*35:01.
Take ALYSYASAK: the Kd with HLA-A*01:01 [4] is at least 20000 nM; with HLA-A*03:01 (setting [21]) it was 39.5 nM; in the assay with HLA-A*11:01 (setting [21]), 11.7 nM; with HLA-A*31:01 (setting [21]), 106 nM; in the assay with HLA-A*69:01 (setting [21]), at least 20000 nM; in the assay with HLA-B*07:02 [5] (setting [21]), at least 20000 nM. In addition, the Kd with HLA-B*40:01 (setting [21]) is at least 20000 nM; in the assay with HLA-B*46:01 (setting [21]) it was at least 20000 nM; with HLA-B*48:01 [6], at least 20000 nM; with HLA-B*57:01 (setting [21]), at least 20000 nM; with HLA-B*58:01 (setting [21]), at least 20000 nM; in the assay with HLA-A*02:01 [7], 56.3 nM. Also, the Kd was 271 nM in the assay with HLA-A*02:06 (setting [22]); at least 20000 nM with HLA-A*26:02 (setting [22]); 494 nM with HLA-A*26:03; at least 20000 nM in the assay with HLA-A*68:02 [8]; at least 20000 nM in the assay with HLA-B*08:01 [9]; at least 20000 nM in the assay with HLA-B*15:01 [10] (setting [22]). In addition, the equilibrium dissociation constant (Kd) in the assay with HLA-B*15:17 (setting [22]) and with HLA-B*18:01 [11] was at least 20000 nM in each case.
Take GMYGHPFAL: the Kd in the assay with HLA-B*48:01 [12] came to 28.3 nM.
The sequence YPRYPGVRC registered a Kd with HLA-B*07:02 [13] (source organism: Influenza A virus (A/nt/60/1968(H3N2))) of 10.3 nM.
As to LLDPLYFEV, the dissociation constant Kd is 4.2 nM with HLA-A*02:01 [1] (setting [23]); at least 20000 nM with HLA-A*03:01 (setting [23]); at least 20000 nM in the assay with HLA-A*11:01 (setting [23]); at least 20000 nM with HLA-A*24:02 [14]; at least 20000 nM with HLA-A*31:01 (setting [23]); at least 20000 nM with HLA-B*07:02 [5] (setting [23]). In addition, the Kd with HLA-B*15:01 [15], with HLA-B*27:05, in the assay with HLA-B*40:01 (setting [23]), in the assay with HLA-B*44:02, in the assay with HLA-B*46:01 (setting [23]) and with HLA-B*58:01 (setting [23]) was at least 20000 nM throughout. In the assay with HLA-A*02:50 (source organism: Escherichia coli 536), the Kd was at most 0.1 nM.
SYHDRRWCF: the Kd with HLA-C*07:02 (setting [24]) came out at 17 nM; with HLA-A*24:02 [2] (setting [24]), 10.1 nM.
For YYKDDISYF, the Kd with HLA-A*02:01 [1] (setting [25]) was at least 20000 nM; with HLA-A*11:01 (setting [25]) it was at least 20000 nM; in the assay with HLA-A*24:03 (setting [25]), 3.7 nM; in the assay with HLA-A*26:01, 579 nM; with HLA-A*31:01 (setting [25]), at least 20000 nM; with HLA-A*68:02 [16], at least 20000 nM. Further, the Kd in the assay with HLA-A*69:01 (setting [25]), in the assay with HLA-B*08:01 [17], with HLA-B*08:02, with HLA-B*18:01 [18], with HLA-B*57:01 (setting [25]) and in the assay with HLA-B*58:01 (setting [25]) was at least 20000 nM in each case. In addition, the Kd in the assay with HLA-C*07:02 (setting [26]) was 29 nM; with HLA-A*01:01 [19], 1390 nM; with HLA-A*02:06 (setting [26]) it was at least 20000 nM; with HLA-A*26:02 (setting [26]) it was 34.7 nM; with HLA-B*07:02 [13] (setting [26]), at least 20000 nM; with HLA-B*15:01 [10] (setting [26]), at least 20000 nM. For the same sequence, in the assay with HLA-B*15:17 (setting [26]), the Kd was at least 20000 nM.
Turning to YYNAFQWAI, the Kd in the assay with HLA-C*04:01 (setting [27]) is at least 20000 nM; in the assay with HLA-C*07:02 (setting [27]) it was 30 nM.

The values are drawn from the Immune Epitope Database (IEDB).
